From publication PMC6684861 (Traffic (Copenhagen, Denmark), 2018)
No end group written: not given here.

molecular target: His-tagged murine Importin α1 with the Importin β binding domain (IBB) deleted (ImpαΔIBB) (murine, UniProt P52293 70-529); assay: crystal structure

binding result	Binder
binds	Ac-SHLSPRKKRPRQTGAL [TdT NLS peptide for crystallization, Ac-S7HLSPRKKRPRQTGAL]
binds	Ac-RGILKAFPKRQKIHADASSKVLAKIPRRE [pol λ NLS peptide for crystallization, Ac-R4GILKAFPKRQKIHADASSKVLAKIPRRE]
binds	Ac-LPKRRRARVGSPSGDAASSTPPSTRFPGV [pol μ NLS peptide for crystallization, Ac-L2PKRRRARVGSPSGDAASSTPPSTRFPGV]
